For orientation: Kd means a measure of binding affinity in units of concentration. A low value points to a tighter complex.

Here are results for one substance from PMC8699727.

This experiment has as its target Microtubules polymerized from purified porcine brain tubulin (porcine) (UniProt P02550). The experiment can be described thus: co-sedimentation.

In turn, “GST-TAOK2-C (1,187–1,235) (from UniProt Q9UL54 1187-1235) (domain or fragment)” displayed a Kd of 670 nM.
